We go through three molecules from publication PMC11021501, “Insights into the inhibition of protospacer integration via direct interaction between Cas2 and AcrVA5” (Nature Communications, 2024).

Numbering of substitutions follows the chain as printed. In names and notes the source's numbering stands.

The chains are these.
B1: AcrVA5-L5A (natural protein)
chain: MKIEASGGYICYSIEEDEVTIDMVEVTTKRQGIGSQLIDMVKDVAREVGLPIGLYAYPQDDSISQEDLIEFYFSNDFEYDPDDVDGRLMRWS
B2: Moraxella bovoculi AcrVA5 (natural protein)
chain: B1 chain with A5L
modifications: C-terminal His-tag left out; the vector-derived PLGS of 6IUF is dropped, so entity number = AcrVA5 number + 4
B3: Treponema denticola Cas2 (natural protein)
chain: MRVIVFFDLPVITPENRHNYSVFRKYLIKSGFIMQQKSVYSKLVLNLTNRDSIVKSIEKNKPPEGLVEVLTVTEKQYAKMEIIIGESKTEYLNTDERLVVL
notes: Cas2 of Treponema denticola, type II-A CRISPR-Cas system; gene amplified and cloned into a modified pET32a vector with a precession enzyme cleavage site; A GST-tagged Cas2 (pGEX-6p-1, GST removed) was also made; Dimer by the crystal structure; also called Td-Cas2; WT-Cas2; not shown: Trx, N-terminal, cleaved

Data set [1] has as its target T1, Treponema denticola Cas2 (Treponema denticola, UniProt Q73QW4 1-101).
T1 chain: B3 chain
Nature of the data set: ITC. For orientation: In ITC the heat of successive injections is recorded.

The target of data set [2] is Treponema denticola Cas2 (Treponema denticola) (UniProt Q73QW4). Put plainly: ITC; AcrVA5 (400 µM) injected into 50 µM Cas2 in the sample cell, 25 °C, 20 mM Tris pH 7.4, 200 mM NaCl; also AcrVA5 mutants and AcrVA5 peptides with Cas2.
Data set [3] concerns the target B3. Described as above. The conditions noted are these: both partners purified.
Data set [4] concerns the molecule itself. Put plainly: crystal structure; Cas2 with peptide at molar ratio 1:1.2, hanging drop, 15% PEG3350, 10% glycerol, 0.1 M Tris pH 6.4; 2.0 Å.

Consider B1, for which the Kd – broadly, the equilibrium constant for the complex coming apart – with Treponema denticola Cas2 [1] stood at 1060 nM; in data set [2], 1300 nM.

B2: in the data set with Treponema denticola Cas2 [3], the Ka amounted to 939000 M⁻¹; the dissociation constant (Kd) turned out to be 1100 nM; the dH was found to be 4.23 ± 0.165 kcal/mol; the stoichiometry N (as a rule, a count of units in the complex or per binding partner) came out at 0.596 ± 0.0158.

As for B3, the “stoichiometry N” value in data set [4] came out at 2.
